Data from paper PMC10724965, “FRIZZLE PANICLE (FZP) regulates rice spikelets development through modulating cytokinin metabolism”.

Molecular target: MBP-FZP (Oryza sativa, UniProt Q8H3Q1 1-318)
Assay: EMSA; 5 nmol protein, 2 nmol probe (so in the source); shift substantially weakened by excess unlabeled probe; EMSA: 10 uL, 2 uL 5x EMSA/Gel-shift binding buffer (Beyotime?), 5 nmol protein, 2 nmol biotin-labeled probe; salt, pH and temperature not given
Settings: protein: recombinant; tags: MBP (pMAL-c2x); label: biotin; blunt

Sequence of MBP-FZP (Q8H3Q1 whole entry): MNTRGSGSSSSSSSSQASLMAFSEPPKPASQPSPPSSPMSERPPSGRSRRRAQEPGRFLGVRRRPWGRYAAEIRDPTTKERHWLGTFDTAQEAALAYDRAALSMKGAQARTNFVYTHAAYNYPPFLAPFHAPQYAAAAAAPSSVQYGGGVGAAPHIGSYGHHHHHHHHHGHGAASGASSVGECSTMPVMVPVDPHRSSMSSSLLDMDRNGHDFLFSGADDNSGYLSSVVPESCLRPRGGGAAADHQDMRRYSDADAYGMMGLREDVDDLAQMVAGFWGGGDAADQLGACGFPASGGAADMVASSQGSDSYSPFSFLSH

B1: EMSA-DST-probe (GCC-box, DST promoter) (dsDNA)
DNA 1: GCACAAGACCCGCAGGCCCAATGGCGAGCCGCCACGTGTACCCGCGCCTCCCCTCCCCGGCC
DNA 2: GGCCGGGGAGGGGAGGCGCGGGTACACGTGGCGGCTCGCCATTGGGCCTGCGGGTCTTGTGC
binding result: binds
